Target: Mos1 transposase (T216A mutant) (Drosophila mauritiana)
Assay: crystal structure; Mos1 IRL paired-end complex: full-length transposase mixed with duplex IRL DNA at 1:1.5 protein:DNA in 25 mM Tris pH 7.5, 250 mM KCl, 1 mM DTT; crystals grown at 17 °C; 3.1 Å

## Mos1 transposase (T216A mutant) (enzyme)
  stoichiometry N: 2

Reference: publication PMC4505599
